Results as given in patent US8604172B2, “Humanized antibody compositions and methods for binding lysophosphatidic acid” (Lpath, Inc., priority 2009, dated 2013).

Experiments:
[1] = LPA competition ELISA (C18:0 LPA coat); type: binding; details: LPC, PA, 14:0 and 18:1 LPA, cPA, PC
Method: The specificity of the humanized antibody was determined by competition ELISA. C18:0 LPA coating material was diluted to 0.33 ug/ml with carbonate buffer (100 mM NaHCO3, 33.6 mM Na2CO3, pH 9.5). Plates were coated with 100 ul/well of coating solution and incubated at 37° C. for 1 hour. The plates were washed 4 times with PBS ([…], pH 7.4) and blocked with 150 ul/well of PBS, 1% BSA, 0.1% tween-20 for 1 h at room temperature. The humanized, anti-LPA antibodies were tested against lipid competitors (14:0 LPA (Avanti, Cat. No 857120), 18:1 LPA (Avanti, Cat. No 857130), 18:1 LPC (Avanti, Cat. No 845875), cLPA (Avanti, Cat. No 857328), 18:1 PA (Avanti, Cat. No 840875), PC (Avanti, Cat. No 850454) at 5 uM, 2.5 uM, 1.25 uM, 0.625 uM, and 0.0 uM. The antibody was diluted to 0.5 ug/ml in PBS, 0.1% tween-20 and combined with the lipid samples at a 1:3 ratio of antibody to sample on a non-binding plate. The plates were washed 4 times with PBS and incubated for 1 hour at room temperature with 100 ul/well of the primary antibody/lipid complex. Next the plates were washed 4 times with PBS and incubated for 1 h at room temperature with 100 […] of HRP-conjugated goat anti-human antibody diluted 1:20,000 in PBS, 1% BSA, 0.1% tween-20. […] The optical density (OD) was measured at 450 nm using a Thermo Multiskan EX. […]

[2] = Competition ELISA specificity, competitor LPC; type: binding; details: maximum inhibition, n = 3
Method: The specificity of the anti-LPA mAbs was assessed for their binding to LPA related biolipids such as distearoyl-phosphatidic acid, lysophosphatidylcholine, S1P, ceramide and ceramide-1-phosphate.

[3] = BiaCore surface plasmon resonance and direct binding ELISA of LT3000
Text: (§1) The murine antibody is a full-length IgG1k isotype antibody composed of two identical light chains and two identical heavy chains with a total molecular weight of 155.5 kDa.

[4] = Specificity of LT3000 against other lipids and proteins; type: binding; details: over 100 lipids and proteins incl. over 20 bioactive lipids
Text: as §1

[5] = test system: human colon cancer cell line (COLO-205); test: Xenograft CAM assay; type: in vivo
[6] = Direct binding ELISA of anti-LPA mAbs to 12:0 LPA
Method: The binding of 6 anti-LPA mAbs (B3, B7, B58, A63, B3A6, D22) to 12:0 and 18:1 LPA (0.1 uM) was measured by ELISA. EC50 values were calculated from titration curves using 6 increasing concentrations of purified mAbs (0 to 0.4 ug/ml). EC50 represents the effective antibody concentration with 50% of the maximum binding. Max denotes the maximal binding (expressed as OD450).

[7] = Competition ELISA (18:1 LPA coat), competitor 20:4 LPA; type: binding; details: maximum inhibition
Method: Many isoforms of LPA have been identified to be biologically active and it is preferable that the mAb recognize all of them to some extent to be of therapeutic relevance. The specificity of the anti-LPA mAbs was evaluated utilizing a competition assay in which the competitor lipid was added to the antibody-immobilized lipid mixture.
Competition ELISA assays were performed with the anti-LPA mAbs to assess their specificity. 18:1 LPA was captured on ELISA plates. Each competitor lipid (up to 10 uM) was serially diluted in BSA (1 mg/ml)-PBS and then incubated with the mAbs (3 nM). Mixtures were then transferred to LPA coated wells and the amount of bound antibody was measured with a secondary antibody. Data are normalized to maximum signal (A450) and are expressed as percent inhibition. Assays were performed in triplicate. IC50: Half maximum inhibition concentration; MI: Maximum inhibition (% of binding in the absence of inhibitor); - - -: not estimated because of weak inhibition. A high inhibition result indicates recognition of the competitor lipid by the antibody.

[8] = Surface plasmon resonance, 12:0 LPA on GLC sensor chip; type: binding
Method: All binding data were collected on a ProteOn optical biosensor (BioRad, Hercules Calif.). 12:0 LPA-thiol and 18:0 LPA-thiol were coupled to a maleimide modified GLC sensor chip (Cat. No 176-5011). First, the GLC chip was activated with an equal mixture of sulfo-NHS/EDC for seven minutes followed by a 7 minute blocking step with ethyldiamine. Next sulfo-MBS (Pierce Co., cat #22312) was passed over the surfaces at a concentration of 0.5 mM in HBS running buffer (10 mM HEPES, 150 mM NaCl, 0.005% tween-20, pH 7.4). LPA-thiol was diluted into the HBS running buffer to a concentration of 10, 1 and 0.1 uM and injected for 7 minutes producing 3 different density LPA surfaces (˜100, ˜300 and ˜1400 RU). Next, binding data for the humanized antibodies was collected using a 3-fold dilution series starting with 25 nM as the highest concentration (original stocks were each diluted 1 to 100). Surfaces were regenerated with a 10 second pulse of 100 mM HCl. All data were collected at 25° C. Controls were processed using a reference surface as well as blank injections. […] In order to extract estimates of the binding constants, data from the varying antibody concentrations were globally fit using 1-site and 2-site models. This produced estimates of the affinity for the bivalent (site 1) and monovalent site (site 2).

Solubility = type: physicochemical; details: 6.6 mM phosphate, 154 mM sodium chloride, pH 7.4
[9] = BIAcore 3000 kinetics, LPA immobilized on sensor chip; type: binding
Method: The kinetics parameters ka (association rate constant), kd (disassociation rate constant) and KD ([…] equilibrium constant) were determined for the 6 lead candidates using the BIAcore 3000 Biosensor machine. In this study, LPA was immobilized on the sensor surface and the anti-LPA mAbs were flowed in solution across the surface.
LPA was immobilized to the sensor chip at densities ranging 150 resonance units. Dilutions of each mAb were passed over the immobilized LPA and kinetic constants were obtained by nonlinear regression of association/dissociation phases. Errors are given as the standard deviation using at least three determinations in duplicate runs. Apparent affinities were determined by […].
ka=Association rate constant in M^−1s^−1kd=Dissociation rate constant in s^−1

Kd [3]: 0.001 to 0.05 nM
binding affinity for other bioactive lipids and proteins [4]: no binding affinity
EC50 ([6]; 12:0 LPA 0.1 uM, mAb 0 to 0.4 ug/ml): 0.413 nM
Max (OD450), 12:0 LPA ([6]; maximal binding): 1.395 OD450
Kd ([8]; first value (site 1, bivalent), read-out: KD (C12)): 0.027 nM
Kd ([8]; value in parentheses (site 2, monovalent), read-out: KD (C12), value in parentheses): 0.007 nM
Kd ([9]; apparent affinity): 0.0016 ± 0.0001 nM
kd ([9]; dissociation rate constant): 1e-06 s⁻¹
B1: LT3000: Murine anti-LPA monoclonal antibody clone B7, IgG1k, renamed Lpathomab, also known as LT3000; hybridoma 504B7.1, ATCC PTA-8420 (antibody, V domains shown)
VH: QVQLQQSGAELVRPGTSVKVSCKASGYGFINYLIEWIKQRPGQGLEWIGLINPGSDYTNYNENFKGKATLTADKSSSTAYMHLSSLTSEDSAVYFCARRFGYYGSGNYFDYWGQGTTLTVSS
VL: DVVMTQTPLSLPVSLGDQASISCTSGQSLVHINGNTYLHWYLQKPGQSPKLLIYKVSNLFSGVPDRFSGSGSGTDFTLKISRVEAEDLGVYFCSQSTHFPFTFGTGTKLEIK
cross-reactivity [1]: no cross-reactivity
MI (%), LPC [2]: 0%
tumor size [5]: significantly reduced
MI, 20:4 LPA [7]: 67%
Solubility (Solubility): >40 mg/mL in 6.6 mM phosphate, 154 mM sodium
ka (M^−1 s^−1) ([9]; association rate constant, ± standard deviation): 6.2 ± 0.1 × 10^5 M^−1 s^−1
